Experimental data reported in article doi:10.1101/2021.02.08.430344.

Key:
[1] = target: T1, SARS-CoV-2 nucleocapsid (N) protein (SARS-CoV-2, UniProt P0DTC9 2-419); experiment: SV-AUC + ITC global fit; […], pH 7.4; ITC at 20 C; […] (137 mM NaCl); settings: protein: commercial; tags: C-terminal His-tag; chain copies: 2; single strand
[2] = target: T1, SARS-CoV-2 nucleocapsid (N) protein; experiment: SV-AUC; […], pH 7.4; ITC at 20 C; […] (137 mM NaCl); settings: protein: commercial; tags: C-terminal His-tag; chain copies: 2; single strand

Binder | Kd [2] [nM] | other results
TTTTTT (ssDNA) [T6] |  | Kd [1]: 600 nM
TTTTTTTTTT (ssDNA) [T10] | < 100 | 
GTGT (ssDNA) [(GT)2] | > 10000 | 
TTTTTTTTTTTTTTTTTTTT (ssDNA) [T20] |  | binding result [2]: binds
